Assay [1] has as its target CP α1N44C β2E84C, labeled with donor and acceptor dyes (single-molecule FRET construct) (mouse) (UniProt Q5RKN9). Kind of assay: single-molecule FRET titration.
The target of assay [2] is CP α1S9C β2S161C, labeled with donor and acceptor dyes (single-molecule FRET construct) (mouse) (UniProt Q5RKN9). The assay can be described thus: single-molecule FRET titration.

Where “and” joins values, the source holds several entries; their conditions need not be identical. Equal entries are not always repeated.

For CKIP-1 CPI-motif peptide, the Kd (in general, the equilibrium constant for the complex coming apart) in assay [1] is 10 nM and 11 nM.

With WASHCAP CPI-motif peptide, the Kd in assay [2] was 1.4 nM.

These data come from publication PMC10872493.
